The target in the test is T1, human CTLA-4 (AA Ala37-Ser160) - Fc Tag fusion protein (AcroBiosystem, catalog no. CT4-H5255) (human, UniProt P16410 37-160).
T1 construct: range 37-160; Bought reagent, coated to the ELISA plate wells as capture reagent; also called human CTLA-4 - Fc Tag fusion protein; not shown: Fc tag
T1 sequence (looked up): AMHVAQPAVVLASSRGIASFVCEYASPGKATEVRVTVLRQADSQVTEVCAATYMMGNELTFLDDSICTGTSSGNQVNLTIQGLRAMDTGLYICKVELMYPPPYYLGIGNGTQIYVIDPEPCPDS
Put plainly: in-house sandwich ELISA, CTLA-4-Fc coated on plate, HHC MET in rat plasma.

B1: HHC MET (VHH)
chain: EVQLVESGGGLVQAGGSLRLSCAASGGTFSFYGMGWFRQAPGKEQEFVADIRTSAGRTYYADSVKGRFTISRDNAKNTVYLQMNSLKPEDTAVYYCAAEMSGISGWDYWGQGTQVTVSSGGGGSGGGSEVQLVESGGGLVQAGGSLRLSCAASGGTFSFYGMGWFRQAPGKEQEFVADIRTSAGRTYYADSVKGRFTISRDNAKNTVYLQMNSLKPEDTAVYYCAAEMSGISGWDYWGQGTQVTVSS
notes: Single polypeptide expressed in E. coli; In the ELISA it stood as free protein in rat plasma (calibration standards and samples); also called free HHC MET
Consider B1, for which the binding result is listed as “binds”.

The values are drawn from patent publication WO2021136808A1 (dated 2021).
